Where a chain is given by its changes, count along the chain named. Bounds are passed on as bounds.

Holding throughout (assay): cAMP activity assay (pCRE β-galactosidase reporter), transfected HEK293T cells
Common to all, as to type: cell-based

One experiment concerns the target T1, RXFP1 A55L (Homo sapiens, UniProt Q9HBX9, A77L).
T1 construct: cells expressing full-length RXFP1 and mutants; expressed in transfected cells; host or cells: HEK293T
T1 sequence (Q9HBX9 23-757 A77L limits assumed): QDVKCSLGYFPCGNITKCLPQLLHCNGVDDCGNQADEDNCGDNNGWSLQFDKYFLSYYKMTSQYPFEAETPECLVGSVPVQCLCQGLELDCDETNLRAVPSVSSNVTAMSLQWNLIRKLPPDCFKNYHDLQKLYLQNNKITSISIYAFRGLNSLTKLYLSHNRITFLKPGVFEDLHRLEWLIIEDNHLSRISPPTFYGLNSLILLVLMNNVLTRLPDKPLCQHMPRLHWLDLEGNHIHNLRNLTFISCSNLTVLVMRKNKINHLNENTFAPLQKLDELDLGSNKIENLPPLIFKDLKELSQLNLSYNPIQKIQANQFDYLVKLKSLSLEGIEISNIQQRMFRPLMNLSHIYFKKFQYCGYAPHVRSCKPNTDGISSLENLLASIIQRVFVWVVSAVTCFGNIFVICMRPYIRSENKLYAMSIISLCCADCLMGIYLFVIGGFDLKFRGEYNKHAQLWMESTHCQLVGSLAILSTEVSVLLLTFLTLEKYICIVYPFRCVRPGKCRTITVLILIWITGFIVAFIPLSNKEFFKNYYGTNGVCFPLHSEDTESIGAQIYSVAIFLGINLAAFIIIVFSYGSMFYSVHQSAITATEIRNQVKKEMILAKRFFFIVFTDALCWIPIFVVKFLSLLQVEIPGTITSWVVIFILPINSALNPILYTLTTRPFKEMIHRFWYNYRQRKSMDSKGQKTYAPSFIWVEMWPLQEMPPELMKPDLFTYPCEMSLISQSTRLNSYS
Conditions: construct A55L, ±s.e.m. The method in brief: (§1)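 Relaxin-stimulated cells go through overnight storage at −80 °C, two 10-min lysis steps at pH 8.0 with shaking, and chlorophenol red-β-D-galactopyranoside development. Output at 570 nm is scaled against the 5 μM Forskolin maximum.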

A further experiment has as its target T2, RXFP1 D42A (Homo sapiens, UniProt Q9HBX9, D64A).
T2 construct: transiently transfected human embryonic kidney (HEK) 293T cells expressing full-length RXFP1 and mutants; expressed in transfected cells; host or cells: HEK293T
T2 sequence (Q9HBX9 23-757 D64A limits assumed): T1 sequence (Q9HBX9 23-757 A77L limits assumed) with D42A, L55A
Conditions: construct D42A. Put shortly:
as §1

A further experiment addresses T3, RXFP1 F50A^ins (Homo sapiens, UniProt Q9HBX9, INS72A).
T3 construct: transiently transfected human embryonic kidney (HEK) 293T cells expressing full-length RXFP1 and mutants; expressed in transfected cells; host or cells: HEK293T
T3 sequence (Q9HBX9 with tags, fused parts or gaps INS72A limits assumed): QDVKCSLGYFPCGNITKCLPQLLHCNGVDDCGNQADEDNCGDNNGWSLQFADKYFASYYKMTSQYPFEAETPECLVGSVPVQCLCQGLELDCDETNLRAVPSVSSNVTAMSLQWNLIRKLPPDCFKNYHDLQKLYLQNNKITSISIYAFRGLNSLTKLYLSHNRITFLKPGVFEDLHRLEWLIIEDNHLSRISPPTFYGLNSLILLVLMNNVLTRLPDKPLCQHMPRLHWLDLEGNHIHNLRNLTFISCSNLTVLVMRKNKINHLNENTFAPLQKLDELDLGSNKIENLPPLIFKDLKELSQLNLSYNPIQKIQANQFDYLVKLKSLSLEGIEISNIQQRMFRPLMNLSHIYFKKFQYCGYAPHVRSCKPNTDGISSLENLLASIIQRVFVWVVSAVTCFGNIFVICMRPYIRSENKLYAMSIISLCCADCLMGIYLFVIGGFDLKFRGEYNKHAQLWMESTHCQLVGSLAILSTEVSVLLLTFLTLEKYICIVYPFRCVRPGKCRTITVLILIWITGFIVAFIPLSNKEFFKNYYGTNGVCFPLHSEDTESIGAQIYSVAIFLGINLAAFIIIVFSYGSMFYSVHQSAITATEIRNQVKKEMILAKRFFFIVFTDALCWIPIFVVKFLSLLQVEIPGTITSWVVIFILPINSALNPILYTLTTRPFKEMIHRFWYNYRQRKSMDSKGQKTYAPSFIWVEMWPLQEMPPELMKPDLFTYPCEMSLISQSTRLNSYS
Conditions: construct F50A^ins, ±s.e.m. The method in brief:
as §1

Setting [1] is: percentage of maximum response to 5 μM Forskolin.

As for “H2 relaxin: two-chain 6-kDa peptide hormone structurally related to insulin; recombinant human gene-2 H2 relaxin provided by Corthera”, the “H2 relaxin pEC50” value in the experiment with RXFP1 A55L (cAMP reporter) is 10.75±0.17 (5); with RXFP1 D42A it was <6 (4); in the experiment with RXFP1 F50A^ins (cAMP reporter), 9.41±0.13 (3). For the same substance, the entries for the “H2 relaxin Emax” value with RXFP1 A55L (setting [1]) and with RXFP1 F50A^ins (setting [1]) were 123.59±8.51 (5) % and 93.62±5.34 (3) %, respectively.

Values taken from publication PMC4837482, “The complex binding mode of the peptide hormone H2 relaxin to its receptor RXFP1” (Nature Communications, 2016).
